In patent US6066502:
Blank lines part the entries; values can stand above or below the molecule they belong to.

How the values were obtained:
[1] = target: human big endothelin-1 (human) (UniProt P05305)
[2] = target: human big endothelin-1 (human) (UniProt P05305); remark: listed apart in the source
[3] = target: human big endothelin-1 (human) (UniProt P05305); remark: listed apart in the source

Sequence of UniProt P05305 (P05305 53-90 limits assumed): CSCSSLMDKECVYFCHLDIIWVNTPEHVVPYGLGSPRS

volume-based activity of the secreted ECE (µunits/ml of cell culture medium) [1]: < 10
Molecule: secreted human ECE (extracellular domain of human ECE fused to the signal peptide of human t-PA) (enzyme)

Spec. activity [µU/mg] [2]: 15100 µU/mg
Molecule: endothelin converting enzyme (ECE-1) purified from FBHE bovine endothelial cells

Spec. activity (µU/mg protein) (µU/mg protein) [3]: 12000
B1: recombinant membrane-bound human ECE (complete human ECE expressed from pcDNA3neo in mammalian cells, colony 38) (enzyme)
chain: MSTYKRATLDEEDLVDSLSEGDAYPNGLQVNFHSPRSGQRCWAARTQVEKRLVVLVVLLAAGLVACLAALGIQYQTRSPSVCLSEACVSVTSSILSSMDPTVDPCHDFFSYACGGWIKANPVPDGHSRWGTFSNLWEHNQAIIKHLLENSTASVSEAERKAQVYYRACMNETRIEELRAKPLMELIERLGGWNITGPWAKDNFQDTLQVVTAHYRTSPFFSVYVSADSKNSNSNVIQVDQSGLGLPSRDYYLNKTENEKVLTGYLNYMVQLGKLLGGGDEEAIRPQMQQILDFETALANITIPQEKRRDEELIYHKVTAAELQTLAPAINWLPFLNTIFYPVEINESEPIVVYDKEYLEQISTLINTTDRCLLNNYMIWNLVRKTSSFLDQRFQDADEKFMEVMYGTKKTCLPRWKFCVSDTENNLGFALGPMFVKATFAEDSKSIATEIILEIKKAFEESLSTLKWMDEETRKSAKEKADAIYNMIGYPNFIMDPKELDKVFNDYTAVPDLYFENAMRFFNFSWRVTADQLRKAPNRDQWSMTPPMVNAYYSPTKNEIVFPAGILQAPFYTRSSPKALNFGGIGVVVGHELTHAFDDQGREYDKDGNLRPWWKNSSVEAFKRQTECMVEQYSNYSVNGEPVNGRHTLGENIADNGGLKAAYRAYQNWVKKNGAEHSLPTLGLTNNQLFFLGFAQVWCSVRTPESSHEGLITDPHSPSRFRVIGSLSNSKEFSEHFRCPPGSPMNPPHKCEVW
